Measured values taken from FireProtDB (doi:10.1002/pro.5560060315).

Conditions: Saccharomyces cerevisiae (strain ATCC 204508 / S288c), CD
[1] = pH 3, Thermal, acetate 0.1 M, reversible: yes (50-75%), structure 1YCC
[2] = pH 3.25, Thermal, acetate 0.1 M, reversible: yes, structure 1YCC
[3] = pH 3.5, Thermal, acetate 0.1 M, reversible: yes, structure 1YCC
[4] = pH 3.75, Thermal, acetate 0.1 M, reversible: yes, structure 1YCC
[5] = pH 4.25, Thermal, acetate 0.1 M, reversible: yes, structure 1YCC
[6] = pH 4.5, 25 °C, Thermal, acetate 0.1 M, reversible: yes, structure 1YCC
[7] = pH 4.5, Thermal, acetate 0.1 M, reversible: yes, structure 1YCC
[8] = pH 4.75, Thermal, acetate 0.1 M, reversible: yes, structure 1YCC
[9] = pH 5, Thermal, acetate 0.1 M, reversible: yes, structure 1YCC
[10] = pH 5.25, Thermal, acetate 0.1 M, reversible: yes, structure 1YCC
[11] = pH 7.5, 25 °C, GdnHCl, Tris-HCl 20 mM, NaCl 40 mM, reversible: yes, structure 1YCC
[12] = pH 3, Thermal, acetate 0.1 M, reversible: yes (50-75%)
[13] = pH 3.25, Thermal, acetate 0.1 M, reversible: yes (50-75%)
[14] = pH 3.5, Thermal, acetate 0.1 M, reversible: yes
[15] = pH 3.75, Thermal, acetate 0.1 M, reversible: yes
[16] = pH 4, Thermal, acetate 0.1 M, reversible: yes
[17] = pH 4.25, Thermal, acetate 0.1 M, reversible: yes
[18] = pH 4.5, 25 °C, Thermal, acetate 0.1 M, reversible: yes
[19] = pH 4.5, Thermal, acetate 0.1 M, reversible: yes
[20] = pH 4.75, Thermal, acetate 0.1 M, reversible: yes
[21] = pH 5, Thermal, acetate 0.1 M, reversible: yes
[22] = pH 7.5, 25 °C, GdnHCl, Tris-HCl 20 mM, NaCl 40 mM, reversible: yes

Sequence of Cytochrome c isoform 1 wild type, P00044 (P00044 whole entry, canonical isoform): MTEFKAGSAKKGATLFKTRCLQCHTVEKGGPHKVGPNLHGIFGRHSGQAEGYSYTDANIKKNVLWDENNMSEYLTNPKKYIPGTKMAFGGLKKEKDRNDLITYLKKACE

**Q.** For Cytochrome c isoform 1 K79W, P00044, which Tm [1] is on record?
**A.** The Tm was 22.8 °C.

**Q.** What about the “change of melting temperature, mutant - wild type (higher = more stable)” value (from here on “change of melting temperature, mutant”) [1] of the same substance?
**A.** The value was 1.3 °C.

**Q.** What about the “unfolding enthalpy (van 't Hoff)” value [1] of the same substance?
**A.** Its value is 43.5 kcal/mol.

**Q.** What about the Tm [2] of the same substance?
**A.** The Tm was 22.8 °C.

**Q.** What about the “change of melting temperature, mutant” value [2] of the same substance?
**A.** Its value is 0.2 °C.

**Q.** What about the “unfolding enthalpy (van 't Hoff)” value [2] of the same substance?
**A.** Its value is 49.8 kcal/mol.

**Q.** And the Tm [3]?
**A.** Its Tm is 27.5 °C.

**Q.** And the “change of melting temperature, mutant” value [3]?
**A.** The value was -3.2 °C.

**Q.** What about the “unfolding enthalpy (van 't Hoff)” value [3] of the same substance?
**A.** The value was 50.5 kcal/mol.

**Q.** And the Tm [4]?
**A.** Its Tm is 29.2 °C.

**Q.** What about the “change of melting temperature, mutant” value [4] of the same substance?
**A.** The value was -5.7 °C.

**Q.** What about the “unfolding enthalpy (van 't Hoff)” value [4] of the same substance?
**A.** The value was 58.6 kcal/mol.

**Q.** And the Tm [5]?
**A.** The Tm was 31.5 °C.

**Q.** And the “change of melting temperature, mutant” value [5]?
**A.** The value was -11.6 °C.

**Q.** What about the “unfolding enthalpy (van 't Hoff)” value [5] of the same substance?
**A.** Its value is 68.5 kcal/mol.

**Q.** What about the “ddG of mutation (higher = less stable)” value [6] of the same substance?
**A.** Its value is 1.6 kcal/mol.

**Q.** What about the “heat capacity change of unfolding” value [6] of the same substance?
**A.** The value was 1.15 kcal/mol/K.

**Q.** And the “unfolding enthalpy (van 't Hoff)” value [6]?
**A.** Its value is 51.4 kcal/mol.

**Q.** What about the unfolding free energy [6] of the same substance?
**A.** Its unfolding free energy is 2.1 kcal/mol.

**Q.** What about the Tm [7] of the same substance?
**A.** The Tm was 36.1 °C.

**Q.** And the “change of melting temperature, mutant” value [7]?
**A.** Its value is -8.9 °C.

**Q.** And the “unfolding enthalpy (van 't Hoff)” value [7]?
**A.** Its value is 64.2 kcal/mol.

**Q.** What about the Tm [8] of the same substance?
**A.** The Tm was 39 °C.

**Q.** And the “change of melting temperature, mutant” value [8]?
**A.** The value was -9.6 °C.

**Q.** And the “unfolding enthalpy (van 't Hoff)” value [8]?
**A.** The value was 71.4 kcal/mol.

**Q.** And the Tm [9]?
**A.** Its Tm is 47.6 °C.

**Q.** What about the “change of melting temperature, mutant” value [9] of the same substance?
**A.** The value was -5.1 °C.

**Q.** What about the “unfolding enthalpy (van 't Hoff)” value [9] of the same substance?
**A.** The value was 78 kcal/mol.

**Q.** And the Tm [10]?
**A.** The Tm was 49.3 °C.

**Q.** What about the “unfolding enthalpy (van 't Hoff)” value [10] of the same substance?
**A.** Its value is 76.5 kcal/mol.

**Q.** And the “ddG of mutation (higher = less stable)” value [11]?
**A.** Its value is 1.43 kcal/mol.

**Q.** What about the denaturant m value [11] of the same substance?
**A.** Its denaturant m value is 4.16 kcal/mol/M.

**Q.** What about the unfolding free energy [11] of the same substance?
**A.** Its unfolding free energy is 4.23 kcal/mol.

**Q.** Which Tm [12] does the source give for “Cytochrome c isoform 1 wild type, P00044” here?
**A.** The Tm was 21.5 °C.

**Q.** And the “unfolding enthalpy (van 't Hoff)” value [12]?
**A.** Its value is 39.6 kcal/mol.

**Q.** And the Tm [13]?
**A.** Its Tm is 22.6 °C.

**Q.** What about the “unfolding enthalpy (van 't Hoff)” value [13] of the same substance?
**A.** The value was 42 kcal/mol.

**Q.** And the Tm [14]?
**A.** Its Tm is 30.7 °C.

**Q.** And the “unfolding enthalpy (van 't Hoff)” value [14]?
**A.** Its value is 54.2 kcal/mol.

**Q.** What about the Tm [15] of the same substance?
**A.** Its Tm is 34.9 °C.

**Q.** What about the “unfolding enthalpy (van 't Hoff)” value [15] of the same substance?
**A.** The value was 62.3 kcal/mol.

**Q.** What about the Tm [16] of the same substance?
**A.** Its Tm is 40.7 °C.

**Q.** And the “unfolding enthalpy (van 't Hoff)” value [16]?
**A.** Its value is 69.8 kcal/mol.

**Q.** And the Tm [17]?
**A.** Its Tm is 43.1 °C.

**Q.** What about the “unfolding enthalpy (van 't Hoff)” value [17] of the same substance?
**A.** Its value is 73.7 kcal/mol.

**Q.** What about the “heat capacity change of unfolding” value [18] of the same substance?
**A.** The value was 1.4 kcal/mol/K.

**Q.** And the “unfolding enthalpy (van 't Hoff)” value [18]?
**A.** Its value is 45.4 kcal/mol.

**Q.** What about the unfolding free energy [18] of the same substance?
**A.** Its unfolding free energy is 3.7 kcal/mol.

**Q.** What about the Tm [19] of the same substance?
**A.** The Tm was 45 °C.

**Q.** What about the “unfolding enthalpy (van 't Hoff)” value [19] of the same substance?
**A.** Its value is 73.4 kcal/mol.

**Q.** And the Tm [20]?
**A.** The Tm was 48.6 °C.

**Q.** What about the “unfolding enthalpy (van 't Hoff)” value [20] of the same substance?
**A.** The value was 79.6 kcal/mol.

**Q.** And the Tm [21]?
**A.** Its Tm is 52.7 °C.

**Q.** What about the “unfolding enthalpy (van 't Hoff)” value [21] of the same substance?
**A.** Its value is 81.9 kcal/mol.

**Q.** What about the denaturant m value [22] of the same substance?
**A.** Its denaturant m value is 4.87 kcal/mol/M.

**Q.** And the unfolding free energy [22]?
**A.** The unfolding free energy was 5.66 kcal/mol.
